Changes are numbered by the printed parent chain.
B1: 1-257-1 (antibody, V domains shown)
VH: EVQLVESGGGLVKPGGSLRLSCAASGFTFSSYSMNWVRQAPGKGLEWVSSISSSSSYIYYADSVKGRFTISRDNAKNSLYLQMNSLRAEDTAVYYCARDRGYYYGMDVWGQGTTVTVSS
VL: DIQMTQSPSSLSASVGDRVTLTCRASQGIRNALGWYQQKPGKAPKRLIYGASSLQSGVPSRFSGSGSGTEFTLTISSLQPEDFATYYCLQHNSYPFTFGPGTKVDIKR
B2: 1-66-1 (antibody, V domains shown)
VH: B1 VH with Y103S, M106L, V108Y, T114L
VL: B1 VL with L21I, A32D, G50A, H91L
B3: 1-268-1 (antibody, V domains shown)
VH: B1 VH with Y102S, Y104F, G105L, M106F, V108Y, T114L
VL: B1 VL with I2M, L21I, A32D, F83S, F96L, P100G, D105E
B4: 1-136-3 (antibody, V domains shown)
VH: B1 VH with Y103S, M106I, V108Y, T114L
VL: B1 VL with L21I, G50A, F96R, P100Q, D105E
B5: 1-116-1 (antibody, V domains shown)
VH: B1 VH with Y103S, M106L, V108Y, T114L
VL: B1 VL with L21I, K45Q, G50A, F96R, P100Q, D105E
B6: 1-314-1 (antibody, V domains shown)
VH: B1 VH with A92T, Y103L
VL: B1 VL with L21I, G28A, A32D, G50A, F96R, P100Q, D105E
B7: 2-43-1 (antibody, V domains shown)
VH: EVQLLESGGGLVQPGGSLRLSCAASGFTFSSYAMSWVRQAPGKGLEWVSAISGSGGSTFYADSVTGRFTISRDNSKNTLFLQLNSLRAEDTAVYHCAKDGRFNWNYGASDIWGQGTMVTVSS
VL: EIVMTQSPATLSVSPGERATLSCRTSQSVSSNLAWYQQKPGQAPRLLIYGASTRATGIPARFSGSGSGTEFTLTISSLQSEDFAVYYCQQYNNWPLTFGGGTKVEIKR
B8: 2-177-1 (antibody, V domains shown)
VH: EVQLLESGGGLIQPGGSLRLSCAASGFTFSSFAMSWVRQAPGKGLEWVSTISGSGGSTYYADFVKGRFTISRDNSKNTLYLQMNSLRAEDTAVYYCAKDGRYNWNYGAFDIWGQGTMVTVSS
VL: B7 VL with T25A, S30R, Y36F
B9: 2-112-1 (antibody, V domains shown)
VH: B8 VH with S57Y, Y59F, F63S
VL: B7 VL with T25A, I58F, V85I

biological target: mature GDF8 (UniProt O14793 267-375); assay: BIAcore
Sequence (O14793 267-375): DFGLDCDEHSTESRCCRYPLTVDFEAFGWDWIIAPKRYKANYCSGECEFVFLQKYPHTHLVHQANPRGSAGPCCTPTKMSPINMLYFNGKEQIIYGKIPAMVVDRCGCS

In order of falling Kd:
1. B7  1.5 nM
2. B8  0.89 nM
3. B3  0.24 nM
4. B1  0.16 nM
5. B6  0.11 nM
6. B2  0.083 nM
7. B4  0.043 nM
8. B5  0.012 nM
9. B9  0.011 nM

Source: patent publication US20060263354A1 (published 2006)
